Source: publication PMC2120989 (The Journal of Cell Biology, 1996)

T1: recombinant full-length (His)6-tagged Xenopus beta-catenin (Xenopus, UniProt P26233 1-781)
T1 sequence (looked up): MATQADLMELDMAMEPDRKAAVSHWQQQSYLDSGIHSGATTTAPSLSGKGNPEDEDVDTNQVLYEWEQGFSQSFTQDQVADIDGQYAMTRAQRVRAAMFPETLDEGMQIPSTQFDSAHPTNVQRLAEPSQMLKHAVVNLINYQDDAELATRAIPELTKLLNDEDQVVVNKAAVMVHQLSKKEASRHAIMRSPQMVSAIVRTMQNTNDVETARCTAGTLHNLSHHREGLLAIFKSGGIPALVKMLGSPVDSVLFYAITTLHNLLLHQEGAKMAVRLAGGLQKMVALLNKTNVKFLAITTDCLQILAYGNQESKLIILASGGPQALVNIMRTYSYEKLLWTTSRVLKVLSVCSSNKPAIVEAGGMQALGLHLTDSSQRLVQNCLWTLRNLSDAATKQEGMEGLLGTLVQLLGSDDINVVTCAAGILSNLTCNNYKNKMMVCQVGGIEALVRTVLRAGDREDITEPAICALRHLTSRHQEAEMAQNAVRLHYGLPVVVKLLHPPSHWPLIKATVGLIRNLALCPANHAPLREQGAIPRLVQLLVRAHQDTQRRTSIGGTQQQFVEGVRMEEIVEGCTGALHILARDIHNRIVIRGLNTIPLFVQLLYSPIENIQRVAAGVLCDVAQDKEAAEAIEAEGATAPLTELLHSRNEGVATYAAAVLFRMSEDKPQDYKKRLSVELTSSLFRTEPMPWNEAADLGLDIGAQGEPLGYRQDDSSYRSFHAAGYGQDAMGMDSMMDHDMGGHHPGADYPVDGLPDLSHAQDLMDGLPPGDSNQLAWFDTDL


Columns and labels:
[1] = target: full-length recombinant fascin, thioredoxin fusion protein (mouse, UniProt Q61553 1-493); experiment: co-IP
[2] = target: T1, recombinant full-length (His)6-tagged …; experiment: co-IP

binding result [1]	binding result [2]	Binder
binds	–	GST fusion protein of the Armadillo repeat region of beta-catenin (amino acid residues 167-583) (domain or fragment) VVNKAAVMVHQLSKKEASRHAIMRSPQMVSAIVRTMQNTNDVETARCTAGTLHNLSHHREGLLAIFKSGGIPALVKMLGSPVDSVLFYAITTLHNLLLHQEGAKMAVRLAGGLQKMVALLNKTNVKFLAITTDCLQILAYGNQESKLIILASGGPQALVNIMRTYSYEKLLWTTSRVLKVLSVCSSNKPAIVEAGGMQALGLHLTDSSQRLVQNCLWTLRNLSDAATKQEGMEGLLGTLVQLLGSDDINVVTCAAGILSNLTCNNYKNKMMVCQVGGIEALVRTVLRAGDREDITEPAICALRHLTSRHQEAEMAQNAVRLHYGLPVVVKLLHPPSHWPLIKATVGLIRNLALCPANHAPLREQGAIPRLVQLLVRAHQDTQRRTSIGGTQQQFVEGVRMEEIVEGCTGALHILARD
–	binds	GST-E-cadherin fusion protein, cytoplasmic domain (residues 734-884) of mouse E-cadherin (domain or fragment) not shown
